According to patent US20230212319A1, “NOVEL ANTIGEN BINDING DOMAINS AND SYNTHETIC ANTIGEN RECEPTORS INCORPORATING THE SAME” (University of Southern California, priority 2020, published 2023):

Columns and labels:
Assay type in all cases: cell-based
L363 cells = test: JNG assay, co-culture with L363 cells; details: co-culture with L363
Summary of the method: (§1)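 Jurkat-NFAT-GFP (JNG) cells stably expressing SAR constructs via lentiviral transduction and puromycin/blasticidin selection were cocultured with target cells at E:T ~1:2 for ~4–18 h. NFAT-driven GFP was measured by FACS versus parental JNG cells; scores +/- to 5+ denote ~5–50% GFP-positive cells.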

U266 cells = test: JNG NFAT-GFP induction on co-culture with U266
RAJI cells = test: JNG assay, co-culture with RAJI cells; details: JNG cells expressing construct, co-culture with Raji
Summary of the method: as §1

Nalm6 cells = test: JNG assay, co-culture with Nalm6 cells; details: co-culture with Nalm6
Summary of the method: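 Values are semi-quantitative grades of GFP induction, each step approximating 10% more GFP+ cells (5+ ≈50%) above parental reporter cells, measured by FACS after SAR-transduced JNG cells were cultured with targets at ~1:2 E:T for ~4–18 h.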

RAJI-CD19-KO cells = test: JNG assay, co-culture with RAJI-CD19-KO cells; details: co-culture with Raji-CD19-KO
Summary of the method: as §1

B1: 22150 (protein)
chain: MALPVTALLLPLALLLHAARPACEVQLLESGGGLIQPGGSLRLSCAASGFTFSSHAMTWVRQAPGKGLEWVSAISGSGDYTHYADSVKGRFTISRDNSKNTVYLQMNSLRAEDSAVYYCAKDEDGGSLLGHRGQGTLVTVSSGTGGGGSGGGGSGGGGSEFDVVMTQSPSSLSASVGDRVTITCMASEDIYIRLAWYQQKPGNAPKLLIYAATSLETGVPSRFSGSGSGTDFTLTISSLQPEDFATYYCQQYWSSPWTFGGGTKVEIKLEADVSPKPTIFLPSIAETKLQKAGTYLCLLEKFFPDVIKIHWQEKKSNTILGSQEGNTMKTNDTYMKFSWLTVPEKSLDKEHRCIVRHENNKNGVDQEIIFPPIKTDVITMDPKDNCSKDANDTLLLQLTNTSAYYMYLLLLLKSVVYFAIITCCLLRRTAFCCNGEKSRAKRSGSGATNFSLLKQAGDVEENPGPTSMDWIWRILFLVGAATGAHSGPQVQLQESGGGLAQAGGSLRLSCAASGRTFSMGWFRQAPGKEREFVAAITYSGGSPYYASSVRGRFTISRDNAKNTVYLQMNSLKPEDTAVYYCAANPTYGSDWNAENWGQGTQVTVSSGSGGGGSGGGGSGGGGSFEQVQLQESGPGLVKPSQTLSLTCTVSGYSITSDYTWNWIRQPPGNGLEWIGYITYSGSTSYNPSLKSRVLISVDTSKNQVSLKLSSVTAADTAVYYCARLGRRYTMDYWGQGTTVTVSSTRPHTKPSVFVMKNGTNVACLVKEFYPKDIRINLVSSKKITEFDPAIVISPSGKYNAVKLGKYEDSNSVTCSVQHDNKTVHSTDFEVKTDSTDHVKPKETENTKQPSKSCHKPKAIVHTEKVNMMSLTVLGLRMLFAKTVAVNFLLTAKLFFLRAKRSGSGVKQTLNFDLLKLAGDVESNPGPSRGHMTEYKPTVRLATRDDVPRAVRTLAAAFADYPATRHTVDPDRHIERVTELQELFLTRVGLDIGKVWVADDGAAVAVWTTPESVEAGAVFAEIGPRMAELSGSRLAAQQQMEGLLAPHRPKEPAWFLATVGVSPDHQGKGLGSAVVLPGVEAAERAGVPAFLETSAPRNLPFYERLGFTVTADVEVPEGPRTWCMTRKPGA
- NFAT-GFP ASSAY: L363 (L363 cells): +/- (refer to approximately 5%, 10%, 20%, 30%, 40% and 50% GFP positive cells)
- NFAT-GFP ASSAY: U266 (U266 cells): + (refer to approximately 5%, 10%, 20%, 30%, 40% and 50% GFP positive cells)
- NFAT-GFP ASSAY: Raji (RAJI cells): + (refer to approximately 5%, 10%, 20%, 30%, 40% and 50% GFP positive cells)

B2: 22160 (protein)
chain: MALPVTALLLPLALLLHAARPACEVQLLESGGGLIQPGGSLRLSCAASGFTFSSHAMTWVRQAPGKGLEWVSAISGSGDYTHYADSVKGRFTISRDNSKNTVYLQMNSLRAEDSAVYYCAKDEDGGSLLGHRGQGTLVTVSSGTGGGGSGGGGSGGGGSEFDIQMTQSPSSLSASVGDRVTITCKASQDVGIAVAWYQQKPGKVPKLLIYWASTRHTGVPDRFSGSGSGTDFTLTISSLQPEDVATYYCQQYSSYPYTFGQGTKVEIKRLEADVSPKPTIFLPSIAETKLQKAGTYLCLLEKFFPDVIKIHWQEKKSNTILGSQEGNTMKTNDTYMKFSWLTVPEKSLDKEHRCIVRHENNKNGVDQEIIFPPIKTDVITMDPKDNCSKDANDTLLLQLTNTSAYYMYLLLLLKSVVYFAIITCCLLRRTAFCCNGEKSRAKRSGSGATNFSLLKQAGDVEENPGPTSMDWIWRILFLVGAATGAHSGPQVQLQESGGGLAQAGGSLRLSCAASGRTFSMGWFRQAPGKEREFVAAITYSGGSPYYASSVRGRFTISRDNAKNTVYLQMNSLKPEDTAVYYCAANPTYGSDWNAENWGQGTQVTVSSGSGGGGSGGGGSGGGGSFEQVQLQQPGAELVKPGASVKMSCKASGYAFSSYWINWMKQKPGQGLEWIGQIYPGDGDTNYNGKFKGRATLTADTSSSTAYMQLSSLTSEDSAVYFCARSITTVVGCAMDYWGQGTSVTVSSTRPHTKPSVFVMKNGTNVACLVKEFYPKDIRINLVSSKKITEFDPAIVISPSGKYNAVKLGKYEDSNSVTCSVQHDNKTVHSTDFEVKTDSTDHVKPKETENTKQPSKSCHKPKAIVHTEKVNMMSLTVLGLRMLFAKTVAVNFLLTAKLFFLRAKRSGSGVKQTLNFDLLKLAGDVESNPGPSRGHMTEYKPTVRLATRDDVPRAVRTLAAAFADYPATRHTVDPDRHIERVTELQELFLTRVGLDIGKVWVADDGAAVAVWTTPESVEAGAVFAEIGPRMAELSGSRLAAQQQMEGLLAPHRPKEPAWFLATVGVSPDHQGKGLGSAVVLPGVEAAERAGVPAFLETSAPRNLPFYERLGFTVTADVEVPEGPRTWCMTRKPGA
- NFAT-GFP ASSAY: L363 (L363 cells): + (refer to approximately 5%, 10%, 20%, 30%, 40% and 50% GFP positive cells)
- NFAT-GFP ASSAY: Nalm6 (Nalm6 cells): + (refer to approximately 5%, 10%, 20%, 30%, 40% and 50% GFP positive cells)
- NFAT-GFP ASSAY: U266 (U266 cells): 3+ (refer to approximately 5%, 10%, 20%, 30%, 40% and 50% GFP positive cells)
- NFAT-GFP ASSAY: Raji (RAJI cells): 2+ (refer to approximately 5%, 10%, 20%, 30%, 40% and 50% GFP positive cells)

B3: 22246 (protein)
chain: MALPVTALLLPLALLLHAARPACEVQLLESGGGLIQPGGSLRLSCAASGFTFSSHAMTWVRQAPGKGLEWVSAISGSGDYTHYADSVKGRFTISRDNSKNTVYLQMNSLRAEDSAVYYCAKDEDGGSLLGHRGQGTLVTVSSGTGPQGIFGQPGYINEFDIQMTQSPSSLSASVGDRVTITCKASDHINNWLAWYQQKPGQAPKLLIYGATTLETGVPSRFSGSGSGTDYTLTISSLQPEDFATYYCQQSWNTPWTFGQGTKLEIKRLEDLKNVFPPEVAVFEPSKAEIAHTQKATLVCLATGFYPDHVELSWWVNGKEVHSGVCTDPQPLKEQPALNDSRYCLSSRLRVSATFWQNPRNHFRCQVQFYGLSENDEWTQDRAKPVTQIVSAEAWGRADCGITSASYHQGVLSATILYEILLGKATLYAVLVSALVLMAMVKRKDSRGRAKRSGSGATNFSLLKQAGDVEENPGPTSATMDWIWRILFLVGAATGAHSGPEVQLVESGGGLVQAGGSLRLSCAASGRTFSMGWFRQAPGKEREFVAAITYSGGSPYYADSVKGRFTISRDNAKNTVYLQMNSLKPEDTAVYYCAANPTYGSDWNAENWGQGTQVTVSSGSGGGGSGGGGSGGGGSFEQVQLQQPGAELVKPGASVKMSCKASGYAFSSYWINWMKQKPGQGLEWIGQIYPGDGDTNYNGKFKGRATLTADTSSSTAYMQLSSLTSEDSAVYFCARSITTVVGCAMDYWGQGTSVTVSSTRIQNPDPAVYQLRDSKSSDKSVCLFTDFDSQTNVSQSKDSDVYITDKCVLDMRSMDFKSNSAVAWSNKSDFACANAFNNSIIPEDTFFPSPESSCDVKLVEKSFETDTNLNFQNLSVIGFRILLLKVAGFNLLMTLRLWSSRAKRSGSGVKQTLNFDLLKLAGDVESNPGPSRGHMTEYKPTVRLATRDDVPRAVRTLAAAFADYPATRHTVDPDRHIERVTELQELFLTRVGLDIGKVWVADDGAAVAVWTTPESVEAGAVFAEIGPRMAELSGSRLAAQQQMEGLLAPHRPKEPAWFLATVGVSPDHQGKGLGSAVVLPGVEAAERAGVPAFLETSAPRNLPFYERLGFTVTADVEVPEGPRTWCMTRKPGA
- NFAT-GFP ASSAY: L363 (L363 cells): + (refer to approximately 5%, 10%, 20%, 30%, 40% and 50% GFP positive cells)
- NFAT-GFP ASSAY: Nalm6 (Nalm6 cells): + (refer to approximately 5%, 10%, 20%, 30%, 40% and 50% GFP positive cells)
- NFAT-GFP ASSAY: U266 (U266 cells): 2+ (refer to approximately 5%, 10%, 20%, 30%, 40% and 50% GFP positive cells)

B4: 22224 (protein)
chain: MALPVTALLLPLALLLHAARPDIQMTQSPSSLSASVGDRVTITCKASDHINNWLAWYQQKPGQAPKLLIYGATTLETGVPSRFSGSGSGTDYTLTISSLQPEDFATYYCQQSWNTPWTFGQGTKLEIKRLEDLKNVFPPEVAVFEPSEAEISHTQKATLVCLATGFYPDHVELSWWVNGKEVHSGVCTDPQPLKEQPALNDSRYCLSSRLRVSATFWQNPRNHFRCQVQFYGLSENDEWTQDRAKPVTQIVSAEAWGRADCGFTSESYQQGVLSATILYEILLGKATLYAVLVSALVLMAMVKRKDSRGRAKRSGSGATNFSLLKQAGDVEENPGPTSATMDWIWRILFLVGAATGAHSGPEVQLVESGGGLVQAGGSLRLSCAASGRTFTMGWFRQAPGKEREFVAAISLSPTLAYYADSVKGRFTISRDNAKNTVVLQMNSLKPEDTALYYCAADRKSVMSIRPDYWGQGTQVTVSSGSALRRLLGLFGFEQVQLQQPGAELVKPGASVKMSCKASGYAFSSYWINWMKQKPGQGLEWIGQIYPGDGDTNYNGKFKGRATLTADTSSSTAYMQLSSLTSEDSAVYFCARSITTVVGCAMDYWGQGTSVTVSSTRIQNPDPAVYQLRDSKSSDKSVCLFTDFDSQTNVSQSKDSDVYITDKCVLDMRSMDFKSNSAVAWSNKSDFACANAFNNSIIPEDTFFPSPESSCDVKLVEKSFETDTNLNFQNLSVIGFRILLLKVAGFNLLMTLRLWSSRAKRSGSGVKQTLNFDLLKLAGDVESNPGPSRGHMTEYKPTVRLATRDDVPRAVRTLAAAFADYPATRHTVDPDRHIERVTELQELFLTRVGLDIGKVWVADDGAAVAVWTTPESVEAGAVFAEIGPRMAELSGSRLAAQQQMEGLLAPHRPKEPAWFLATVGVSPDHQGKGLGSAVVLPGVEAAERAGVPAFLETSAPRNLPFYERLGFTVTADVEVPEGPRTWCMTRKPGA
- NFAT-GFP ASSAY: L363 (L363 cells): 2+ (refer to approximately 5%, 10%, 20%, 30%, 40% and 50% GFP positive cells)
- NFAT-GFP ASSAY: U266 (U266 cells): 4+ (refer to approximately 5%, 10%, 20%, 30%, 40% and 50% GFP positive cells)
- NFAT-GFP ASSAY: Raji (RAJI cells): + (refer to approximately 5%, 10%, 20%, 30%, 40% and 50% GFP positive cells)
- NFAT-GFP ASSAY: Raji-CD19-KO (RAJI-CD19-KO cells): 2+ (refer to approximately 5%, 10%, 20%, 30%, 40% and 50% GFP positive cells)
